# Experimental data as given in patent US20240101959A1, “USE OF IL-2R-BETA-GAMMA AGONIST PEPTIDES IN CELL MANUFACTURING” (MEDIKINE, INC., priority 2022, published 2024).
# Positions of bridges follow the written chain, without caps; N, C: chain ends. No end group written: not given here.
# T1: hu-IL-2Rβ subunit (human, UniProt P14784 27-240, limits assumed)
# T1 construct: also called human interleukin-2 receptor subunit β; CD122
# T1 sequence (looked up): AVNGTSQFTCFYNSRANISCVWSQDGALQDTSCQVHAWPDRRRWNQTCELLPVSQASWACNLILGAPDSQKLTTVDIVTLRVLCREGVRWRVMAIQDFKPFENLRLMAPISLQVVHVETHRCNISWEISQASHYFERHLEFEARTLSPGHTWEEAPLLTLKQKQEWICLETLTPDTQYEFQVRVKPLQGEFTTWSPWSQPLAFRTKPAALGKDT
# Biological target: T1, hu-IL-2Rβ subunit
# Assay: phage ELISA competition assay
row,Binder,IC50 [µM]
1,RREWYPCWIAQVGELCDLPLI [SEQ ID NO 343],< 100
2,WYPCGVAQPGDLCDLE [SEQ ID NO 251],< 100
3,YLNFNPCWTAQLGELCDLASGE [SEQ ID NO 243],< 100
4,WYPCWIARVGELCDME (disulfide 4-13 (inferred)) [SEQ ID NO 342],< 100
5,WYPCWIARVGELCDLE [SEQ ID NO 553],< 100
6,DLWQPCWMARLGELCDLKG [SEQ ID NO 249],< 100
7,SRFWQPCWMAQLGELCHLDPQM [SEQ ID NO 242],< 100
8,TNNFYPCWLAKLGDLCDFDDLN (disulfide 7-16 (inferred)) [SEQ ID NO 338],< 100
9,STGWYPCWIAEFGELCDLVKPH [SEQ ID NO 244],< 100
10,MGTGWQNYCRYAQLGELCLL [SEQ ID NO 250],< 100
11,VWFPCWFAQLGDLCDLDQDP [SEQ ID NO 348],< 100
12,HPVRYPCWVAQLGELCDLENGN [SEQ ID NO 246],< 100
13,WYPCWLAQLGDLCDLD [SEQ ID NO 87],< 100
14,WYPCWIAHLGELCDLE [SEQ ID NO 341],< 100
15,WYPCWMARMGELCDLE [SEQ ID NO 384],< 100
16,WYPCWMARLGELCDLE [SEQ ID NO 137],< 100
17,WYPCWLAQVGELCDLD [SEQ ID NO 554],< 100
18,WYPCWMAQLGELCDMD (disulfide 4-13 (inferred)) [SEQ ID NO 376],< 100
19,WHPCWIAHLGELCDLE [SEQ ID NO 388],< 100
20,WYPCWLAQLGELCDLD [SEQ ID NO 130],< 100
21,WYPCWMAHLGELCDLE [SEQ ID NO 474],< 100
22,RYPCWIAQLGELCDLD [SEQ ID NO 387],< 100
23,WYPCWLAHLGELCDLE [SEQ ID NO 369],< 100
24,WYPCWLAHLGELCDLA [SEQ ID NO 395],< 100
25,WYPCWVAQLGELCDLE [SEQ ID NO 462],< 100

row,Binder,IC50 [µM]
1,WYPCWIAQLGELCDLE [SEQ ID NO 148],< 100
2,WHPCWIAQLGELCDLE [SEQ ID NO 147],< 100
3,WYPCWVAKLGELCDLE [SEQ ID NO 472],< 100
4,WYPCWIAQLGELCDLV [SEQ ID NO 352],< 100
5,WYPCWLAQLGELCDLD [SEQ ID NO 361],< 100
6,WYPCWIAKLGELCDLE [SEQ ID NO 142],< 100
7,QPAWLPCWLAQLGELCDLGTGA [SEQ ID NO 241],< 100
8,ETLGSVWYPCWIASIGELCDLD [SEQ ID NO 349],< 100
9,RWPWYPCEIARIGELCDLEQAN [SEQ ID NO 344],< 100
10,QTGSYPCWIAHLGELCDLEGSA [SEQ ID NO 247],< 100
11,WDGWECGMDHDGWVCEFWGE [SEQ ID NO 253],< 100
12,AHWSQPCWTAQLGELCDLDMGD [SEQ ID NO 245],< 100
13,WYPCWLAKLGELCDLDRAEALP [SEQ ID NO 347],< 100
14,WLPCWIASLGELCDLDTGKRQG [SEQ ID NO 95],< 100
15,WFPCWLAQLGELCDKE [SEQ ID NO 351],< 100
16,WYPCWIAQLGELCDLDAKGQRR [SEQ ID NO 337],< 100
17,WLPCWMAHLGQLCDLDLPGKSM [SEQ ID NO 96],< 100
18,AGDWLPCWMAELGELCDLEGPT [SEQ ID NO 94],< 100
19,AVEFYPCWLARIGELCDLVEP [SEQ ID NO 340],< 100
20,FGAFYPCWKAQLGELCDLEPVT [SEQ ID NO 345],< 100
21,TGWWYPCWMAQLGELCDLQQT (disulfide 7-16 (inferred)) [SEQ ID NO 248],< 100
22,HGRWFPCWMAQVGDLCDLEHSN [SEQ ID NO 346],< 100
23,WYSCWIAQLGELCDLDDMGDRV (disulfide 4-13 (inferred)) [SEQ ID NO 350],< 100
24,WYPCWIARVGELCDLEEGPVNR [SEQ ID NO 339],< 100
25,MLGEWLCEMDQLGYLCYLDHGD [SEQ ID NO 252],< 100
